# Results as given in PMC13265731, “In vitro reconstitution defines the mechanistic basis of HSET motor activity regulation by IntraFlagellar Transport proteins” (Communications Biology, 2026).
# B1: GFP-HSET (full-length N-terminal hexa-histidine-tagged GFP-HSET) (natural protein, human, UniProt Q9BW19 1-673, looked up)
# chain: MDPQRSPLLEVKGNIELKRPLIKAPSQLPLSGSRLKRRPDQMEDGLEPEKKRTRGLGATTKITTSHPRVPSLTTVPQTQGQTTAQKVSKKTGPRCSTAIATGLKNQKPVPAVPVQKSGTSGVPPMAGGKKPSKRPAWDLKGQLCDLNAELKRCRERTQTLDQENQQLQDQLRDAQQQVKALGTERTTLEGHLAKVQAQAEQGQQELKNLRACVLELEERLSTQEGLVQELQKKQVELQEERRGLMSQLEEKERRLQTSEAALSSSQAEVASLRQETVAQAALLTEREERLHGLEMERRRLHNQLQELKGNIRVFCRVRPVLPGEPTPPPGLLLFPSGPGGPSDPPTRLSLSRSDERRGTLSGAPAPPTRHDFSFDRVFPPGSGQDEVFEEIAMLVQSALDGYPVCIFAYGQTGSGKTFTMEGGPGGDPQLEGLIPRALRHLFSVAQELSGQGWTYSFVASYVEIYNETVRDLLATGTRKGQGGECEIRRAGPGSEELTVTNARYVPVSCEKEVDALLHLARQNRAVARTAQNERSSRSHSVFQLQISGEHSSRGLQCGAPLSLVDLAGSERLDPGLALGPGERERLRETQAINSSLSTLGLVIMALSNKESHVPYRNSKLTYLLQNSLGGSAKMLMFVNISPLEENVSESLNSLRFASKVNQCVIGTAQANRK
# notes: HSET (KIFC1), human mitotic kinesin-14, full length; Dimer by mass photometry (measured 232 ± 34 kDa, expected 210 kDa for the GFP-HSET dimer); also called KIFC1; kinesin-14; source: Sf9 insect cells, baculovirus, purified (Ni-NTA); not shown: GFP, N-terminal, kept
# Tests used:
# [1] = target: the molecule itself; assay: mass photometry; in solution; pre-incubated 30 min at 30 °C (1.2 µM GFP-HSET, 2.4 µM IFT52/70) in 20 mM Na-Hepes pH 7.2, 150 mM NaCl, 2 mM MgCl2, 10% glycerol, 5 mM β-mercaptoethanol; measured at 2.5 nM GFP-HSET and 5 nM IFT52/70, alone or mixed, 25 °C
# [2] = target: B1; assay: as above; settings: both partners purified
# [3] = target: B1; assay: cell-based or functional assay
Binder,stoichiometry N [1],stoichiometry N [2],"GFP-HSET (5 nM) fluorescence at microtubule minus ends relative to the lattice, with IFT52/70 (10 nM) (1.38 versus 2.34) [3] [fold]"
B1,2,–,–
"IFT52/70 complex (SNAP-IFT52/SNAP-IFT70) (complex, SNAP-Surface Alexa Fluor 647 on the SNAP tag | SNAP-Surface Alexa Fluor 647 on the SNAP tag) chain 1: MEKELRSTILFNAYKKEVFTTNTGYKSLQKRLRSNWKIQSLKDEITSEKLIGVKLWITAGPREKFTAAEFEVLKKYLDSGGDILVMLGEGGESRFDTNINFLLEEYGIMVNNDAVVRNVYYKYFHPKEALVSDGVLNREISRAAGKAVPGVIDEENSGNNAQALTFVYPFGATLSVMKPAVAVLSTGSVCFPLNRPILAFYHSKNQGFGKLAVLGSCHMFSDQYLDKEENSKIMDVVFQWLTTGDIHLNQIDAEDPEISDYTMVPDTATLSEQLRVCLQEGDENPRDFTTLFDLSIYQLDTTCLPKVIKAHEELNVKHEPLQLVQPQFEMPLPALQPAVFPPSFRELPPPPLELFDLDETFSSEKARLAQITNKCTDEDLEFYVRKCGDILGVTSKLPKDQQDAKHILEHIFFQVVEFKKLNQEAH chain 2: MAGLSGAQIPDGEFTAVVYRLIRNARYAEAVQLLGGELQRSPRSRAGLSLLGYCYYRLQEFALAAECYEQLGQLHPELEQYRLYQAQALYKACLYAEATRVAFLLLDNPAYHSRVLRLQAAIKYSEGDLPGSRSLVEQLPSREGGEESGGENETDGQINLGCLLYKEGQYEAACSKFFAALQASGYQPDLSYNLALAYYSSRQYASALKHIAEIIERGIRQHPELGVGMTTEGIDVRSVGNTLVLHQTALVEAFNLKAAIEYQLRNYEAAQEALTDMPPRAEEELDPVTLHNQALMNMDARPTEGFEKLQFLLQQNPFPPETFGNLLLLYCKYEYFDLAADVLAENAHLIYKFLTPYLYDFLDAVITCQTAPEEAFIKLDGLAGMLTEVLRKLTIQVQEARHNRDDEAIKKAVNEYDETMEKYIPVLMAQAKIYWNLENYPMVEKIFRKSVEFCNDHDVWKLNVAHVLFMQENKYKEAIGFYEPIVKKHYDNILNVSAIVLANLCVSYIMTSQNEEAEELMRKIEKEEEQLSYDDPDKKMYHLCIVNLVIGTLYCAKGNYDFGISRVIKSLEPYNKKLGTDTWYYAKRCFLSLLENMSKHTIMLRDSVIQECVQFLEHCELHGRNIPAVIEQPLEEERMHVGKNTVTYESRQLKALIYEIIGWNI",–,2 IFT52/70 dimers per GFP-HSET dimer,1.7
